B1: DR5 mAb 2 (antibody, V domains shown)
VH: KVQLQQSGAELVKPGASVKLSCKASGYTFTEYILHWVKQKSGQGLEWIGWFYPGNNNIKYNEKFKDKATLTADKSSSTVYMELSRLTSEDSAVYFCARHEQGPGYFDYWGQGTTLTVSS
VL: DIVMTQSHKFMSTSVGDRVSITCKASQDVNTAVAWYQQKPGQSPKLLIYWASTRHTGVPDRFTGSGSGTDYTLTIKSVQAEDLTLYYCQQHYITPWTFGGGTKLEIK
notes: It is a murine antibody; also called murine anti-human antibody DR5 mAb 2; DR mAb 2
B2: DR5 mAb 1 (antibody, V domains shown)
VH: EVKFLESGGGLVQPGGSLKLSCVASGFDFSRYWMSWVRQAPGKGLEWIGEINPDSNTINYTPSLKDKFIISRDNAKNTLYLQMTKVRSEDTALYYCTRRAYYGNPAWFAYWGQGTLVTVSS
VL: DIVLTQSPASLAVSLGQRATISCRASKSVSSSGYSYMHWYQQKPGQPPKVLIFLSSNLDSGVPARFSGSGSGTDFTLNIHPVEDGDAATYYCQHSRDLPPTFGGGTKLEIK
notes: also called anti-human DR5 monoclonal antibody DR5 mAb 1
B3: DR5 mAb 4×CD3 mAb 2 (bispecific antibody)
chain 1: EIVLTQSPGTLSLSPGERATLSCRASQGISRSYLAWYQQKPGQAPSLLIYGASSRATGIPDRFSGSGSGTDFTLTISRLEPEDFAVYYCQQFGSSPWTFGQGTKVEIKGGGSGGGGEVQLVESGGGLVQPGGSLRLSCAASGFTFSTYAMNWVRQAPGKGLEWVGRIRSKYNNYATYYADSVKGRFTISRDDSKNSLYLQMNSLKTEDTAVYYCVRHGNFGNSYVSWFAYWGQGTLVTVSSASTKGEVAACEKEVAALEKEVAALEKEVAALEK
chain 2: QAVVTQEPSLTVSPGGTVTLTCRSSTGAVTTSNYANWVQQKPGQAPRGLIGGTNKRAPWTPARFSGSLLGGKAALTITGAQAEDEADYYCALWYSNLWVFGGGTKLTVLGGGGSGGGGQVQLQESGPGLVKPSQTLSLTCTVSGGSISSGDYFWSWIRQLPGKGLEWIGHIHNSGTTYYNPSLKSRVTISVDTSKKQFSLRLSSVTAADTAVYYCARDRGGDYYYGMDVWGQGTTVTVSSASTKGKVAACKEKVAALKEKVAALKEKVAALKE
notes: also called diabody with the VL and VH Domains of conatumumab
B4: DR5 mAb 2×CD3 mAb 2 (bispecific antibody)
chain 1: DIVMTQSHKFMSTSVGDRVSITCKASQDVNTAVAWYQQKPGQSPKLLIYWASTRHTGVPDRFTGSGSGTDYTLTIKSVQAEDLTLYYCQQHYITPWTFGGGTKLEIKGGGSGGGGEVQLVESGGGLVQPGGSLRLSCAASGFTFSTYAMNWVRQAPGKGLEWVGRIRSKYNNYATYYADSVKGRFTISRDDSKNSLYLQMNSLKTEDTAVYYCVRHGNFGNSYVSWFAYWGQGTLVTVSSASTKGEVAACEKEVAALEKEVAALEKEVAALEK
chain 2: QAVVTQEPSLTVSPGGTVTLTCRSSTGAVTTSNYANWVQQKPGQAPRGLIGGTNKRAPWTPARFSGSLLGGKAALTITGAQAEDEADYYCALWYSNLWVFGGGTKLTVLGGGGSGGGGKVQLQQSGAELVKPGASVKLSCKASGYTFTEYILHWVKQKSGQGLEWIGWFYPGNNNIKYNEKFKDKATLTADKSSSTVYMELSRLTSEDSAVYFCARHEQGPGYFDYWGQGTTLTVSSASTKGKVAACKEKVAALKEKVAALKEKVAALKE
notes: also called DR5 mAb 2×CD3 mAb 2 diabody
B5: DR5 mAb 1×CD3 mAb 2 (bispecific antibody)
chain 1: DIVLTQSPASLAVSLGQRATISCRASKSVSSSGYSYMHWYQQKPGQPPKVLIFLSSNLDSGVPARFSGSGSGTDFTLNIHPVEDGDAATYYCQHSRDLPPTFGGGTKLEIKGGGSGGGGEVQLVESGGGLVQPGGSLRLSCAASGFTFSTYAMNWVRQAPGKGLEWVGRIRSKYNNYATYYADSVKGRFTISRDDSKNSLYLQMNSLKTEDTAVYYCVRHGNFGNSYVSWFAYWGQGTLVTVSSASTKGEVAACEKEVAALEKEVAALEKEVAALEK
chain 2: QAVVTQEPSLTVSPGGTVTLTCRSSTGAVTTSNYANWVQQKPGQAPRGLIGGTNKRAPWTPARFSGSLLGGKAALTITGAQAEDEADYYCALWYSNLWVFGGGTKLTVLGGGGSGGGGEVKFLESGGGLVQPGGSLKLSCVASGFDFSRYWMSWVRQAPGKGLEWIGEINPDSNTINYTPSLKDKFIISRDNAKNTLYLQMTKVRSEDTALYYCTRRAYYGNPAWFAYWGQGTLVTVSSASTKGKVAACKEKVAALKEKVAALKEKVAALKE
notes: also called bispecific DR5×CD3 diabody
B6: DR5 mAb 3×CD3 mAb 2 (bispecific antibody)
chain 1: SELTQDPAVSVALGQTVRITCSGDSLRSYYASWYQQKPGQAPVLVIYGANNRPSGIPDRFSGSSSGNTASLTITGAQAEDEADYYCNSADSSGNHVVFGGGTKLTVLGGGGSGGGGEVQLVESGGGLVQPGGSLRLSCAASGFTFSTYAMNWVRQAPGKGLEWVGRIRSKYNNYATYYADSVKGRFTISRDDSKNSLYLQMNSLKTEDTAVYYCVRHGNFGNSYVSWFAYWGQGTLVTVSSASTKGEVAACEKEVAALEKEVAALEKEVAALEK
chain 2: QAVVTQEPSLTVSPGGTVTLTCRSSTGAVTTSNYANWVQQKPGQAPRGLIGGTNKRAPWTPARFSGSLLGGKAALTITGAQAEDEADYYCALWYSNLWVFGGGTKLTVLGGGGSGGGGEVQLVQSGGGVERPGGSLRLSCAASGFTFDDYAMSWVRQAPGKGLEWVSGINWQGGSTGYADSVKGRVTISRDNAKNSLYLQMNSLRAEDTAVYYCAKILGAGRGWYFDYWGKGTTVTVSSASTKGKVAACKEKVAALKEKVAALKEKVAALKE
notes: also called diabody with the VL and VH Domains of drozitumab

Assays:
[1] = target: T1, histidine tagged TRAIL (UniProt P50591 114-281, limits assumed); assay: ELISA, biotinylated antibody on TRAIL-His coat
T1 construct: also called TRAIL-His; TRAIL ligand; not shown: histidine tag

[2] = target: T2, human DR5 (human, UniProt O14763 56-440); assay: antibody titration read as MFI (log axis) against concentration in nM; the text does not describe the assay format or how DR5 was presented (Example 2)
T2 construct: also called Death Receptor 5; TRAIL-R2
T2 sequence (O14763 other isoform, or with tags, fused parts or gaps): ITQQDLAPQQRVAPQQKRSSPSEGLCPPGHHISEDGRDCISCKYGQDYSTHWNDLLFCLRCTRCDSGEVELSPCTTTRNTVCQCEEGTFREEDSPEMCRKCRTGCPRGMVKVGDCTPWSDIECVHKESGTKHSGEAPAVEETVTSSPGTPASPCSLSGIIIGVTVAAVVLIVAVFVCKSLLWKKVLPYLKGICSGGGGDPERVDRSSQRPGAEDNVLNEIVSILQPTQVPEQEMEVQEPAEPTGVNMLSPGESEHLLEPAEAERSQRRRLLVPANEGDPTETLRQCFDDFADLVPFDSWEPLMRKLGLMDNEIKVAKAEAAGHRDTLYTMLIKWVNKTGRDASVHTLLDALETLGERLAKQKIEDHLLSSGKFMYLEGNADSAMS

[3] = target: T3, His-tagged cynomolgus monkey DR5 (cynomolgus monkey); assay: Biacore (SPR); DR5×CD3 diabody with His-tagged cynomolgus monkey DR5
T3 construct: also called His-tagged DR5 (cynomolgus monkey)
Method: Bispecific DR5×CD3 diabodies were incubated with His-tagged DR5 and the kinetics of binding was determined via Biacore analysis.

Row | Binder | binding result [1] | EC50 (read off the curve) [2] | Kd [3]
1 | B1 | no binding | – | –
2 | B2 | no binding | ~1 nM | –
3 | B3 | – | – | 16.4 nM
4 | B4 | – | – | 0.42 nM
5 | B5 | – | – | 32.5 nM
6 | B6 | – | – | 13.3 nM

Source: patent publication US20180016344A1 (MacroGenics, published 2018)
